The target of data set [1] is T1, SARS-CoV-2 spike glycoprotein RBD domain (SARS-CoV-2, UniProt P0DTC2 SEQ:1-223). The data set can be described thus: SPR; SB1T, no dextran, 25 C.
The target of data set [2] is BSA (bovine serum albumin) (UniProt P02769 P02769:25-607). Nature of the data set: SPR; signal approximately 0. The note with it: tags: Sigma A7906. In general terms: SPR reads the build-up and loss of mass on a sensor chip optically.
Data set [3] has as its target T1, SARS-CoV-2 spike glycoprotein RBD domain. The data set can be described thus: SPR.
For data set [4] the target is unchanged. Nature of the data set: SPR; SB1T + 0.1 mM dextran, 25 C.
The target is the same in data set [5]. Nature of the data set: ELONA.
In data set [6] the target is SARS-CoV-2 spike glycoprotein S1+S2 domain (ECD) (SARS-CoV-2, UniProt P0DTC2 SEQ:2-1201). Nature of the data set: SPR; 400 nM protein, SB1T, 25 C. The note with it: tags: His; Sino Biological 40589-V08B1.
Data set [7] has as its target SARS-CoV-2 spike glycoprotein S1 domain (SARS-CoV-2, UniProt P0DTC2 SEQ:2-673). Nature of the data set: SPR; 400 nM protein, SB1T, 25 C. The note with it: tags: Elabscience PKSR030481.

Chain of BSA (bovine serum albumin) (P02769 25-607, one chain of several): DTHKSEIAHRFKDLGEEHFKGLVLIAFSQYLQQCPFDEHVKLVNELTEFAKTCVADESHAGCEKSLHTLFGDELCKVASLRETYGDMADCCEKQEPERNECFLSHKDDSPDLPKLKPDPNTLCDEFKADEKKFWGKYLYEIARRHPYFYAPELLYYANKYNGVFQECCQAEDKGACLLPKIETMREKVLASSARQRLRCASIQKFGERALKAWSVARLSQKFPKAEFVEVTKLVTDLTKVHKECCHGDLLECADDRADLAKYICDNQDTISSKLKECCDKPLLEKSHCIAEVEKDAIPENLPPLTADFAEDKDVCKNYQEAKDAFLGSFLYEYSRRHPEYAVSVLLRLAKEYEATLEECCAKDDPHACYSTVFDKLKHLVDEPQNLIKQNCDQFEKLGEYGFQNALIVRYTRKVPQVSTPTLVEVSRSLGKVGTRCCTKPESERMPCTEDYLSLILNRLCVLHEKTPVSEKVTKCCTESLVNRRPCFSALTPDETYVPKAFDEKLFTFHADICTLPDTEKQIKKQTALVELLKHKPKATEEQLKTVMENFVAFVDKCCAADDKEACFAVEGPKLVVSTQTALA

B1: Control nucleic acid molecule (Song et al. 2020 aptamer) (ssDNA)
DNA: CAGCACCGACCTTGTGCTTTGGGAGTGCTGGTCCAAGGGCGTTAATGGACAAAAAAAAAAAAAAAAAAAAA
The molecule B1 yielded a Kd in data set [1] of 65000 nM.

B2: Binding nucleic acid molecule 1 (ssDNA)
DNA: GGTATGTCTCCGCCACTGAAATCCGTGCCTAATCTCACCCCACGGAATTCATGGCAAAGCCGAGGTGTCTTGTATTCAAAAAAAAAAAAAAAAAAAA
modifications: NG7 (modified thymine, formula 1) at underlined T, i.e. T residues 3' of the first 23 nt (underlining of some T differs between printings); 3' poly(dA)20 tail unmodified
With B2, the binding result in data set [2] is on record as “no binding”. Besides, the Kd in data set [3] was 1.2 nM; in data set [4], 3.2 nM.

B3: Binding nucleic acid molecule 1, 5'-biotin (ELAA) (ssDNA)
DNA: GGTATGTCTCCGCCACTGAAATCCGTGCCTAATCTCACCCCACGGAATTCATGGCAAAGCCGAGGTGTCTTGTATTC
modifications: NG7 (modified thymine, formula 1) at underlined T, i.e. T residues 3' of the first 23 nt
In the case of B3, the binding result in data set [5] was “binds”.

B4: Binding nucleic acid molecule 6 (ssDNA)
DNA: GGTTTAGCCCTCGACTCCAAATGACATGAGCCAGGTGCATCTTGAACGTCATAGATACCGTTGATGTGCTGCCAATACAAAAAAAAAAAAAAAAAAAA
modifications: NG7 (modified thymine, formula 1) at all T 3' of the first 23 nt
For the molecule B4, the binding result in data set [2] is listed as “no binding”. Moreover, the Kd in data set [1] was determined as 3.1 nM; in data set [4] it was 6.7 nM.

B5: Binding nucleic acid molecule 2 (ssDNA)
DNA: GGTATGTCTCCGCCACTGAAATCTAATCTCACATTGTAAGCAAAGGAGAATAAGCAAAGCCGAGGTGTCTTGTATTCAAAAAAAAAAAAAAAAAAAA
modifications: NG7 (modified thymine, formula 1) at all T 3' of the first 23 nt
For B5, the binding result in data set [2] is recorded as “no binding”. The Kd was 1.7 nM in data set [1] and 3.5 nM in data set [4].

B6: Binding nucleic acid molecule 5 (ssDNA)
DNA: GGTTTAGCCCTCGACTCCAAATGTGCACTCTCCCGGTATCCCTAATCTCACCCGATACCGTTGATGTGCTGCCAATACAAAAAAAAAAAAAAAAAAAA
modifications: NG7 (modified thymine, formula 1) at underlined T, i.e. T residues 3' of the first 23 nt (underlining of some T differs between printings)
B6: the binding result in data set [2] is listed as “no binding”. For the same molecule, the Kd is < 0.1 nM in data set [3] and 2.8 nM in data set [4].

B7: Binding nucleic acid molecule 7 (ssDNA)
DNA: GGTTTAGCCCTCGACTCCAAATGTGCTGATACTCGGTATCCCTAATCTCACCCGATACCGTTGATGTGCTGCCAATACAAAAAAAAAAAAAAAAAAAA
modifications: NG7 (modified thymine, formula 1) at all T 3' of the first 23 nt
On to B7, for which the binding result in data set [2] was “no binding”. Also, the figures for the Kd in data set [3] and in data set [4] were < 0.1 nM and 5.5 nM, respectively.

B8: Binding nucleic acid molecule 3 (ssDNA)
DNA: GGTATGTCTCCGCCACTGAAATCCCTGACCGCTGACCAAATCTCAGTGCAGATGCAAAGCCGAGGTGTCTTGTATTCAAAAAAAAAAAAAAAAAAAA
modifications: NG7 (modified thymine, formula 1) at all T 3' of the first 23 nt
For the molecule B8, the binding result in data set [2] is “no binding”; in data set [6] it was “binds”; in data set [7] it was “binds”.

B9: Binding nucleic acid molecule 8, 5'-biotin (ELAA) (ssDNA)
DNA: CCACTGAAATCCGTGCCTAATCTCACCCCACGGAATTCATGG
modifications: NG7 (modified thymine, formula 1) at all T 3' of the first 11 nt
In the case of B9, the binding result in data set [5] is recorded as “binds”.

B10: Binding nucleic acid molecule 11 (ssDNA)
DNA: TGTGCACTCTCCCGGTATCCCTAATCTCACCCGATACCAAAAAAAAAAAAAAAAAAAA
modifications: NG7 (modified thymine, formula 1) at all T 3' of the first 15 nt
On to B10, for which the Kd is < 0.1 nM in data set [3] and 16.6 nM in data set [4].

B11: Binding nucleic acid molecule 8 (ssDNA)
DNA: CCACTGAAATCCGTGCCTAATCTCACCCCACGGAATTCATGGAAAAAAAAAAAAAAAAAAAA
modifications: NG7 (modified thymine, formula 1) at all T 3' of the first 11 nt
In the case of B11, the Kd was 2 nM in data set [1] and 5.3 nM in data set [4].

B12: Binding nucleic acid molecule 13 (ssDNA)
DNA: GCTGATACTCGGTATCCCTAATCTCACCCGATACCGAAAAAAAAAAAAAAAAAAAA
modifications: NG7 (modified thymine, formula 1) at all T 3' of the first 12 nt
On to B12, for which the Kd in data set [3] was < 0.1 nM; in data set [4] it was 12 nM.

B13: Binding nucleic acid molecule 12 (ssDNA)
DNA: TGACATGAGCCAGGTGCATCTTGAACGTCATAGATACCGTTGATGTGCTGAAAAAAAAAAAAAAAAAAAA
modifications: NG7 (modified thymine, formula 1) at all T 3' of the first 14 nt
For B13, the Kd in data set [1] was determined as 2.4 nM; in data set [4] it was 7.4 nM.

B14: Binding nucleic acid molecule 9 (ssDNA)
DNA: TCCGCCACTGAAATCTAATCTCACATTGTAAGCAAAGGAGAATAAAAAAAAAAAAAAAAAAAAAA
modifications: NG7 (modified thymine, formula 1) at all T 3' of the first 15 nt
Turning to B14, the Kd in data set [1] amounted to 2.1 nM; in data set [4] it was 20.8 nM.

B15: Binding nucleic acid molecule 4 (ssDNA)
DNA: GGTATGTCTCCGCCACTGAAATCTTGTCCCCTAATAGGTTCCGACTGACAAGTGCAAAGCCGAGGTGTCTTGTATTCAAAAAAAAAAAAAAAAAAAA
modifications: NG7 (modified thymine, formula 1) at all T 3' of the first 23 nt
Consider B15, for which the binding result in data set [2] is “no binding”; in data set [6], “binds”; in data set [7] it was “binds”.

For orientation: Kd means the constant that tells how readily two partners part at equilibrium.

The values above are taken from patent US20240002860, “SARS-CoV-2 SPIKE GLYCOPROTEIN-BINDING NUCLEIC ACID MOLECULE, SARS-CoV-2 DETECTION SENSOR, SARS-CoV-2 DETECTION REAGENT, SARS-CoV-2 DETECTION METHOD, AND SARS-CoV-2 VIRUS DEACTIVATOR” (NEC Solution Innovators, Ltd., published 2024).
